Results reported in US20190085029.

Test system: T1, CDK5 inhibitory (CDK5i) peptide
T1 sequence: ARAFGIPVRCYS

Substance: Purified recombinant p25/CDK5 complex
- CDK5 kinase activity (radiolabeled ATP and its substrate, H1): the CDK5i peptide significantly reduced CDK5 kinase activity compared to that from a scrambled peptide-treated group
